{
  "source": "the DeepSol protein solubility set",
  "data": [
    {"experiment": "soluble on expression in E. coli; label from the status in PepcDB or PDB records", "values": [
      {"sequence": "MHHHHHHMNSRILSTGSYLPSHIRTNADLEKMVDTSDEWIVTRSGIRERRIAAEDETVATMGFEAAKNAIEAAQINPQDIELIIVATTSHSHAYPSAACQVQGLLNIDDAISFDLAAACTGFVYALSVADQFIRAGKVKKALVIGSDLNSRKLDETDRSTVVLFGDGAGAVILEASEQEGIISTHLHASADKNNALVLAQPERGIEKSGYIEMQGNETFKLAVRELSNVVEETLLANNLDKKDLDWLVPHQANLRIITATAKKLEMDMSQVVVTLDKYANNSAATVPVALDEAIRDGRIQRGQLLLLEAFGGGWTWGSALVRF", "soluble on expression in E. coli": "soluble"},
      {"sequence": "MIELEGVPELVDPVMVAAFEGWNDAGDAASTAVAHLDREWKGEVFAALDAEDYYDFQVNRPTVFMEDGVRKITWPTTRLSVVRVGGDKPRDLVLVRGIEPSMRWRSFCNELLGFAHELGVELVVVLGALLGDTPHTRPVPISGTTSDADLARRMDLEETKYEGPTGIVGILQEACTHAGVPAVSLWAAVPHYVSQPPNPKATLALLNRLEDLIGVRVPLGELPEDARAWQVGVDQLAAEDTEVAEYVQSLEEARDTA", "soluble on expression in E. coli": "soluble"},
      {"sequence": "AKMLGLDFVAVVPRSTSGAKIALIEAQGGRCHFIDRPPEIYSEARRLAAETNGHFMDQFTHAERATDWRGNNNIAESIYHQMIREEHPVPEWLVMSAGTGGTSATLGRYIRYRRHATRLLVVDPENSAFFGGYDSNSCDYATGMPSRIEGIGRPRVEPSFVGQVIDRMMRVPDAASIATARHASSVLGRRVGGSTGTNLWGAFAVVAEMLAAGRSGSVVTILCDGGERYADTYFDDDWVAGEGIDLTGPAAVLDRFA", "soluble on expression in E. coli": "not soluble"},
      {"sequence": "INALVIGDLMLDQYLWGKAERISPEAPVQVVDVTREEIRIGGAGNVANNLVALGCRVSVASVVGGDENGTILLHAFSGKGIDVTGIVEDPSRTTSRKTRVLASNQQIVRIDRESRDEIGPDNERRIVDYLNAHGDRFNVILVSDYLKGVLTPTLLAEVIAFARKREIPVVVDPKGSDYAKYRGATVLTPNRKEAEAASGIAIRDDESLCRAGERLLETADLTALVITRSEEGMSLFLRGGQVVHIPTYAREVFDVTGAGDTVLAVLGMALAGGVGFADGARLANVAAGVAVGKVGTSTVSPAEIVGSLG", "soluble on expression in E. coli": "not soluble"},
      {"sequence": "MAHHHHHHMSIYCRLASPPVFLRALHTVSVSRDGWATVVFTDSHVVLHVEGTDENMTATCTLPKNLFAEYAVVETRFALHIPTLIDALLMLGPSVATASTRAVLAYPTDDAKLLVELTPTDRVAGGGSCGGFSGGGPMTQSDLGV", "soluble on expression in E. coli": "soluble"},
      {"sequence": "AGVFNLEGFGPVSRAMGGTGAAFDIGPAAMMENPATLGLMGEGRHFSLGLDVVSTDIKVTNTATGETASSGNHGNNNGPYFAPQTAFVYRQGRYAFGAGIFAEGGLGTQYGGSSFLSRTSNGVDTGLDQFSRLLVLRVPFSAAYHVTDKLTVGASVDAVWTSLNLGTLLDVSQIGTLAGQGRVSGTLVPTLLGVPGLSGGYIDFSRNAPVGGGVQAWGIGGRLGLTYQVTPDTRIGAAYQAKTHVGDLTGQATLSAVSSVAGNIPLKGDVTVRNFQMPAQLTVGISHQFNDQLSVSADYQRVFWSSVMKDMNVGFVQSGSAANLDLSLPQNYRDISVFGIGAEYRYNAKWTFRGGFHYAQEAIPGNMLLAVVPATPTTSLTGGVSYAIGKNDVIDFALSVALRKTLDNASQPNTAVPISVTHSQVNAVIAYQKRFHHHHHH", "soluble on expression in E. coli": "soluble"},
      {"sequence": "MTYTTAKAAEKIGISAHTLRFYDKEGLLPNIGRDEYGNRCFTDNDLQWLGLLQCLKNTGMSLKDIKRFAECTVIGDDTIEERLSLFENQIENVKCQIAELKRYLDLLEYKLAFYQKAKALGSVKAVNLPQIPETA", "soluble on expression in E. coli": "soluble"},
      {"sequence": "MKSLQALFGGTFDPVHYGHLKPVETLANLIGLTRVTIIPNNVPPHRPQPEANSVQRKHMLELAIADKPLFTLDERELKRNAPSYTAQTLKEWRQEQGPDVPLAFIIGQDSLLTFPTWYEYETILDNAHLIVCRRPGYPLEMAQPQYQQWLEDHLTHNPEDLHLQPAGKIYLAETPWFNISATIIRERLQNGESCEDLLPEPVLTYINQQGLYR", "soluble on expression in E. coli": "soluble"},
      {"sequence": "MATTPETMENHAFDADMSFESALENYLSSDFGDLEEGSIVKGEIVRLGDDYVLVDVNFKSEGQIAANEFRDANGDLIIGVGDRVDVFVVRKNEMEGTITLSYEKAKRMQLFDQLEEVQEKNGVIKGRIVRRIKGGYTVDLGGVEAFLPGSHVDLRPVPDMDALVNQEYEFRVLKINRRRSNVIVSRRVLLEEERDSKRQDLLRTLEEGQVVKGKAKNITEYGVFVDLGGLDGLLHITDMSWKRIRHPKELVSLGQELELKVLSFDRDSQKVSLGMKQLVADPWQDITAKFPEGLRGQGKVTNLVDYGAFVELEPGVEGLVHISEMSWTRKLRHPSQMVRVGDEVEVVILGVDPDKKRISLGMKQVKPNPWEVVAEKYPEGTILEGVIKNITEFGMFIGIEDGIDGLIHVSDISWTKKIRHPNEMYKVGDVVQAKVLTVDQENEKFTLGVKQLAEDPWSRVPATYPVGTLVTGSVTNITDFGLFVEVEEGIEGLVHVSEISQKKIKSPSEIYKEGQEIQAKVIHVSAEERRLGLSIKQLKDEEERRKPKEFRSGSPEVGGQTLGDILKLKLEEDAADNLEHHHHHH", "soluble on expression in E. coli": "not soluble"},
      {"sequence": "MFNLQKRINGNNEDGRYLETRIAVRDKLLAQELQQLETALRDQKQKLWHLEVPSTSCLHELELTVTPQEGIYRGGKFRFKITVPPEYNNVPPVVKCLTKVWHPNINEDGSICLSILRQNSLDQYGWRPTRNLTDVVHGLVSLFNDLMDFNDALNIQAAQMWSQNRESFNHRVREYISRYC", "soluble on expression in E. coli": "soluble"},
      {"sequence": "DVDEVLRLCAEGLHDVLGYERVNILMADTARTSLSFVAAVGTADFNPAGVVLPLDQRGGVITKCFTDRQVYMIDDVSAYPTDFRLQSPYDAIRALRSKSFVICPIVVKGEAIGVFAVDNRSSR", "soluble on expression in E. coli": "not soluble"},
      {"sequence": "MRLEVFCEDRLGLTRELLDLLVLRGIDLRGIEIDPIGRIYLNFAELEFESFSSLMAEIRRIAGVTDVRTVPWMPSEREHLALSALLEALPEPVLSVDMKSKVDMANPASCQLFGQKLDRLRNHTAAQLINGFNFLRWLESEPQDSHNEHVVINGQNFLMEITPVYLQDENDQHVLTGAVVMLRSTIRMGR", "soluble on expression in E. coli": "soluble"},
      {"sequence": "KHLPEPFRIRVIEPVKRTTRAYREEAIIKSGMNPFLLDSEDVFIDLLTDSGTGAVTQSMQAAMMRGDEAFSGSRSYYALAESVKNIFGYQYTIPTHQGRGAEQIYIPVLIKKREQEKGLDRSKMVAFSNYFFDTTQGHSQINGCTVRNVYIKEAFDTGVRYDFKGNFDLEGLERGIEEVGPNNVPYIVATITSNSAGGQPVSLANLKAMYSIAKKYDIPVVMDSARFAENAYFIKQREAEYKDWTIEQITRETYKYADMLAMSAKKDAMVPMGGLLCMKDDSFFDVYTECRTLCVVQEGFPTYGGLEGGAMERLAVGLYDGMNLDWLAYRIAQVQYLVDGLEEIGVVCQQAGGHAAFVDAGKLLPHIPADQFPAQALACELYKVAGIRAVEIGSFLLGRDPKTGKQLPCPAELLRLTIPRATYTQTHMDFIIEAFKHVKENAANIKGLTFTYEPKVLRHFTAKLKEV", "soluble on expression in E. coli": "soluble"},
      {"sequence": "MVKWQATLSTTEPYNYIGIQNVRQGNRNTEVLEAILVENALPLDLTGCEVFFESVIDNKYPIQRAAKIVNAKKGIIQYTFDEYSMQSLHRQEAYFSIHKGDNLIGSTQNFSYFVVNAASKTEGEMGSYWQSIEDLIADMTAFINENKGDFTAWMNARKEEFEKWRKNQQDTFEAWRNGQETDYLKWFESIKDILKTIDPGGTMLAELMDARVDIQGVRHNSLSERLLADMNYLYHRLEERLYTIKYGNVNTLEILEDDSFSKNHEVEVLGTVNHPIEEGALIIATVDDSKQNVFTIEGVDNG", "soluble on expression in E. coli": "not soluble"},
      {"sequence": "GMDIMLNTADISAAAILLPVEGAQLSELRQIPAEGGPVLHMLRLDSPQFSQFGEIYFSEVLPRRVKAWKRHSLMTQLFAVPVGCIHVVLYDGREKSPTSGRLAQVTLGRPDNYRLLRIPPQVWYGFAATGDTPALVANCTDIPHRQGESERAPQDAPFIPFSWAGADLSGTPVM", "soluble on expression in E. coli": "soluble"}
    ]}
  ]
}
